Measured values: patent US20170008955A1 (CNJ, published 2017)

What was measured:
cSNK:BSA conjugate [1] = molecular target: T1, cSNK:BSA conjugate (bovine, head-to-tail cyclized; conjugated to BSA carrier); assay: BLI 2:1 fit, column KD; 6.25 nM row
T1 construct: also called BSA-cSNK
Procedure: (§1) Biolayer interferometry (Octet […], ForteBio) was used to qualitatively/quantitatively assess the interactions between humanized versions of 5E3 and cSNK:BSA conjugate. […] MAbs were loaded onto sensors and then washed in PBST. Each sensor was associated with one of several cSNK:BSA standards (100 nM to 0 nM) and then washed in PBST. Data was processed statistically using ForteBio Data Analysis software to determine the strength of antigen-antibody binding (KD). For each mAb analyzed, a 2:1 model provided the “best fit”.

cSNK:BSA conjugate [2] = molecular target: T1, cSNK:BSA conjugate; assay: BLI 2:1 fit, column kon2; 6.25 nM row
Procedure: as §1

cSNK:BSA conjugate [3] = molecular target: T1, cSNK:BSA conjugate; assay: BLI 2:1 fit, column kdis2; 12.5 nM row
Procedure: as §1

cSNK:BSA conjugate [4] = molecular target: T1, cSNK:BSA conjugate; assay: BLI 2:1 fit, column KD2; 6.25 nM row
Procedure: as §1

cSNK:BSA conjugate [5] = molecular target: T1, cSNK:BSA conjugate; assay: BLI 2:1 fit, column kdis2; 6.25 nM row
Procedure: as §1

cSNK:BSA conjugate [6] = molecular target: T1, cSNK:BSA conjugate; assay: BLI 2:1 fit, column kdis2; 50 nM row
Procedure: as §1

cSNK:BSA conjugate [7] = molecular target: T1, cSNK:BSA conjugate; assay: BLI 2:1 fit, column KD; 12.5 nM row
Procedure: as §1

cSNK:BSA conjugate [8] = molecular target: T1, cSNK:BSA conjugate; assay: BLI 2:1 fit, column kdis; 6.25 nM row
Procedure: as §1

cSNK:BSA conjugate [9] = molecular target: T1, cSNK:BSA conjugate; assay: BLI 2:1 fit, column kdis; 25 nM row
Procedure: as §1

cSNK:BSA conjugate [10] = molecular target: T1, cSNK:BSA conjugate; assay: BLI 2:1 fit, column kon; 25 nM row
Procedure: as §1

cSNK:BSA conjugate [11] = molecular target: T1, cSNK:BSA conjugate; assay: BLI 2:1 fit, column kon; 50 nM row
Procedure: as §1

cSNK:BSA conjugate [12] = molecular target: T1, cSNK:BSA conjugate; assay: BLI 2:1 fit, column kdis2; 100 nM row
Procedure: as §1

cSNK:BSA conjugate [13] = molecular target: T1, cSNK:BSA conjugate; assay: BLI 2:1 fit, column kon; 100 nM row
Procedure: as §1

cSNK:BSA conjugate [14] = molecular target: T1, cSNK:BSA conjugate; assay: BLI 2:1 fit, column KD; 25 nM row
Procedure: as §1

cSNK:BSA conjugate [15] = molecular target: T1, cSNK:BSA conjugate; assay: BLI 2:1 fit, column kdis; 50 nM row
Procedure: as §1

cSNK:BSA conjugate [16] = molecular target: T1, cSNK:BSA conjugate; assay: BLI 2:1 fit, column kdis; 100 nM row
Procedure: as §1

cSNK:BSA conjugate [17] = molecular target: T1, cSNK:BSA conjugate; assay: BLI 2:1 fit, column kon2; 50 nM row
Procedure: as §1

cSNK:BSA conjugate [18] = molecular target: T1, cSNK:BSA conjugate; assay: BLI 2:1 fit, column kon2; 25 nM row
Procedure: as §1

cSNK:BSA conjugate [19] = molecular target: T1, cSNK:BSA conjugate; assay: BLI 2:1 fit, column KD2; 50 nM row
Procedure: as §1

cSNK:BSA conjugate [20] = molecular target: T1, cSNK:BSA conjugate; assay: BLI 2:1 fit, column KD; 100 nM row; 100 nM row, column KD (site with kon 4.16E+06, kdis 3.38E-02)
Procedure: as §1

cSNK:BSA conjugate [21] = molecular target: T1, cSNK:BSA conjugate; assay: BLI (Octet RED96), 2:1 kinetics, KD2, summary table
Procedure: as §1
(§2) Table 7 summarizes the affinity constants of humanized 5E3 IgG1, IgG2 and IgG4 constructs. The KD ranges were determined using 2:1 kinetics of binding of analyte (BSA-cSNK) in solution to two different binding sites on the surface (immobilized bivalent, monospecific 5E3) in comparison to murine 5E3 using biolayer interferometry (Octet RED96).

cSNK:BSA conjugate [22] = molecular target: T1, cSNK:BSA conjugate; assay: BLI 2:1 fit, column kdis; 12.5 nM row
Procedure: as §1

cSNK:BSA conjugate [23] = molecular target: T1, cSNK:BSA conjugate; assay: BLI 2:1 fit, column kon2; 12.5 nM row
Procedure: as §1

cSNK:BSA conjugate [24] = molecular target: T1, cSNK:BSA conjugate; assay: BLI (Octet RED96), 2:1 kinetics, KD1, summary table
Procedure: as §1, §2

cSNK:BSA conjugate [25] = molecular target: T1, cSNK:BSA conjugate; assay: BLI 2:1 fit, column KD2; 100 nM row
Procedure: as §1

cSNK:BSA conjugate [26] = molecular target: T1, cSNK:BSA conjugate; assay: BLI 2:1 fit, column KD2; 12.5 nM row
Procedure: as §1

cSNK:BSA conjugate [27] = molecular target: T1, cSNK:BSA conjugate; assay: BLI 2:1 fit, column kon2; 100 nM row
Procedure: as §1

cSNK:BSA conjugate [28] = molecular target: T1, cSNK:BSA conjugate; assay: BLI 2:1 fit, column KD; 50 nM row
Procedure: as §1

cSNK:BSA conjugate [29] = molecular target: T1, cSNK:BSA conjugate; assay: BLI 2:1 fit, column kon; 6.25 nM row
Procedure: as §1

cSNK:BSA conjugate [30] = molecular target: T1, cSNK:BSA conjugate; assay: BLI 2:1 fit, column kdis2; 25 nM row
Procedure: as §1

cSNK:BSA conjugate [31] = molecular target: T1, cSNK:BSA conjugate; assay: BLI 2:1 fit, column KD2; 25 nM row
Procedure: as §1

cSNK:BSA conjugate [32] = molecular target: T1, cSNK:BSA conjugate; assay: BLI 2:1 fit, column kon; 12.5 nM row
Procedure: as §1

T1 sequence (P02769 25-607 limits assumed): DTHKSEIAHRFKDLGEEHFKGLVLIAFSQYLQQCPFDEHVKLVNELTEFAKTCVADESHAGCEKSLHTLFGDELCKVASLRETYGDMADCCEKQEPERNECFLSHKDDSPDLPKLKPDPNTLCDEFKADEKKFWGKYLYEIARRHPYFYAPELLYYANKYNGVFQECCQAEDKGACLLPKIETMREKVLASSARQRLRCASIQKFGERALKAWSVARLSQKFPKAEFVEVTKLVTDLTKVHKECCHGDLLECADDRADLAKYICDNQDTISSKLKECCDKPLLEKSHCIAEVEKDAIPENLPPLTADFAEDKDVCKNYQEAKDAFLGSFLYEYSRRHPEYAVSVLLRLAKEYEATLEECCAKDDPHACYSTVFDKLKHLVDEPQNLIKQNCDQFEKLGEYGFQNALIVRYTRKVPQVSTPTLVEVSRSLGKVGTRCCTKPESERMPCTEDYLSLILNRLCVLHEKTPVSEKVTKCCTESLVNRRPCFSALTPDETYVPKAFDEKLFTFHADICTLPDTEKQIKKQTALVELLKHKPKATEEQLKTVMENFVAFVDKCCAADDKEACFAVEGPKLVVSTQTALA

B1: rehu5E3-IgG2 (antibody, V domains shown)
VH: QVQLQQSGPEVVKPGASVKISCKASGYIFTSYYIQWVIHAPGQGLEWIGWIYPGNVNTKYNEKFKGKATLTADKSSSTAYMELSSLRSEDSAVYFCARMDYEAHYWGQGTLVTVSS
VL: DIQMTQSPSSLSASLGDRVTLTCRASQEISGYLTWLQQKPEKAIKRLIYAASTLDSGVPKRFSGSRSGSDYTLTISSLQPEDFADYNCLQYANYPRTFGGGTKLEIK
notes: human IgG2/kappa
cSNK:BSA conjugate [1]
  Kd: 1.28 nM
cSNK:BSA conjugate [2]
  kon: 4.16e+06 M⁻¹ s⁻¹
cSNK:BSA conjugate [3]
  koff: 0.0338 s⁻¹
cSNK:BSA conjugate [4]
  Kd: 8.14 nM
cSNK:BSA conjugate [5]
  koff: 0.0338 s⁻¹
cSNK:BSA conjugate [6]
  koff: 0.00089 s⁻¹
cSNK:BSA conjugate [7]
  Kd: 1.28 nM
cSNK:BSA conjugate [8]
  koff: 0.00089 s⁻¹
cSNK:BSA conjugate [9]
  koff: 0.00089 s⁻¹
cSNK:BSA conjugate [10]
  kon: 698000 M⁻¹ s⁻¹
cSNK:BSA conjugate [11]
  kon: 4.16e+06 M⁻¹ s⁻¹
cSNK:BSA conjugate [12]
  koff: 0.00089 s⁻¹
cSNK:BSA conjugate [13]
  kon: 4.16e+06 M⁻¹ s⁻¹
cSNK:BSA conjugate [14]
  Kd: 1.28 nM
cSNK:BSA conjugate [15]
  koff: 0.0338 s⁻¹
cSNK:BSA conjugate [16]
  koff: 0.0338 s⁻¹
cSNK:BSA conjugate [17]
  kon: 698000 M⁻¹ s⁻¹
cSNK:BSA conjugate [18]
  kon: 4.16e+06 M⁻¹ s⁻¹
cSNK:BSA conjugate [19]
  Kd: 1.28 nM
cSNK:BSA conjugate [20]
  Kd: 8.14 nM
cSNK:BSA conjugate [21]
  Kd: 1.28 nM
cSNK:BSA conjugate [22]
  koff: 0.00089 s⁻¹
cSNK:BSA conjugate [23]
  kon: 4.16e+06 M⁻¹ s⁻¹
cSNK:BSA conjugate [24]
  Kd: 8.14 nM
cSNK:BSA conjugate [25]
  Kd: 1.28 nM
cSNK:BSA conjugate [26]
  Kd: 8.14 nM
cSNK:BSA conjugate [27]
  kon: 698000 M⁻¹ s⁻¹
cSNK:BSA conjugate [28]
  Kd: 8.14 nM
cSNK:BSA conjugate [29]
  kon: 698000 M⁻¹ s⁻¹
cSNK:BSA conjugate [30]
  koff: 0.0338 s⁻¹
cSNK:BSA conjugate [31]
  Kd: 8.14 nM
cSNK:BSA conjugate [32]
  kon: 698000 M⁻¹ s⁻¹
